Measured values from patent publication US20090291081A1 (AbbVie / Abbott, published 2009).

B1: ABT2-108-533X (other)
VH: EVQLLESGGGLVQPGGSLRLSCAASGFTFADEGMMWVRQAPGKGLEWVSRIGQDGKNTYYADSVKGRFTISRDNSKNTLYLQMNSLRAEDTAVYYCAKYTGRILGHHLFDYWGQGTLVTVSS
B2: ABT2-108-538X (other)
VH: EVQLLESGGGLVQPGGSLRLSCAASGFTFADEGMMWVRQAPGKGLEWVSRITYSGKNTYYADSVKGRFTISRDNSKNTLYLQMNSLRAEDTAVYYCAKYTGRILGHHLFDYWGQGTLVTVSS
B3: ABT2-108-537X (other)
VH: EVQLLESGGGLVQPGGSLRLSCAASGFTFADEGMMWVRQAPGKGLEWVSRIGQDGKNTYYRMDVKGRFTISRDNSKNTLYLQMNSLRAEDTAVYYCAKYTGRILGHHLFDYWGQGTLVTVSS
B4: ABT2-64 (other)
VH: EVQLLESGGGLVQPGGSLRLSCAASGFTFDDYGMGWVRQAPGKGLEWVSLIYPFGGGTYYADSVKGRFTISRDNSKNTLYLQMNSLRAEDTAVYYCAKVTQTGKFDYWGQGTLVTVSS
B5: ABT2-35 (other)
VH: EVQLLESGGGLVQPGGSLRLSCAASGFTFGEYDMAWVRQAPGKGLEWVSVIYAWGTSTYYADSVKGRFTISRDNSKNTLYLQMNSLRAEDTAVYYCAKMGGGLVSLPQSKFDYWGQGTLVTVSS
B6: ABT2-66 (other)
VH: EVQLLESGGGLVQPGGSLRLSCAASGFTFSHYTMAWVRQAPGKGLEWVSTIGSSGNSTYYADSVKGRFTISRDNSKNTLYLQMNSLRAEDTAVYYCAQMRGPYYTFDYRGQGTLVTVSS
B7: ABT2-69 (other)
VH: EVQLLESGGGLVQPGGSLRLSCAASGFTFTGYDMAWVRQAPGKGLEWVSVIYAYGESTYYADSVKGRFTISRDNSKNTLYLQMNSLRAEDTAVYYCAKVYSNQFDYWGQGTLVTVSS
B8: ABT2-72 (other)
VH: EVQLLESGGGLVQPGGSLRLSCAASGFTFRAYDMGWVRQAPGKGLEWVSVIYAWGTSTYYADSVKGRFTISRDNSKNTLYLQMNSLRAEDTAVYYCAKTSSDGFDYWGQGTLVTVSS
B9: ABT2-39 (other)
VH: EVQLLESGGGLVQPGGSLRLSCAASGFTFRAYDMGWVRQAPGKGLEWVSVIYAWGTSTYYADSVKGRFTISRDNSKNTLYLQMNSLRAEDTAVYYCAKIDRDASLPTGEGFDYWGQGTLVTVSS
B10: ABT2-68 (other)
VL: DIQMTQSPSSLSASVGDRVTITCRASQNIWYHLNWYQQKPGKAPKLLIYLGSRLQSGVPSRFSGSGSGTDFTLTISSLQPEDFATYYCQQIHHDPFTFGQGTKVEIKR
B11: ABT2-43 (other)
VL: DIQMTQSPSSLSASVGDRVTITCRASQNIDTYLTWYQQKPGKAPRLLIYGASTLQSGVPSRFSGSGSGTDFTLTISSLQPEDFATYYCQQRAYYPTTFGQGTKVEIKR
B12: ABT2-60 (other)
VL: DIQMTQSPSSLSASVGDRVTITCRASQSIRVFLSWYQQKPGKAPKLLIYNASNLQSGVPSRFSGSGSGTDFTLTISSLQPEDFATYYCQQRALYPTTFGQGTKVEIKR
notes: VK dAb
B13: ABT2-59 (other)
VL: DIQMTQSPSSLSASVGDRVTITCRASQSINVFLSWYQQKPGKAPKLLIYNASNLQSGVPSRFSGSGSGTDFTLTISSLQPEDFATYYCQQRALYPTTFGQGTKVEIKR
notes: VK dAb
B14: ABT2-13 (other)
VH: EVQLLESGGGLVQPGGSLRLSCAASGFTFRDYVMYWARQAPGKGLEWVSRIDPMGSSTYYADSVKGRFTISRDNSKNTLYLQMNSLRAEDTAVYYCAKPEGNFDYWGQGTLVTVSS
B15: ABT2-67 (other)
VL: DIQMTQSPSSLSASVGDRVTITCRASQYIGEHLAWYQQKPGKAPKLLIYHNSALQSGVPSRFSGSGSGTDFTLTISSLQPEDFATYYCQQHAFLPNTFGQGTKVEIKR
B16: ABT2-76 (other)
VL: DIQMTQSPSSLSASVGDRVTITCRASQSIDRWLAWYQQKPGKAPKLLIYRGSILQSGVPSRFSGSGSGTDFTLTISSLQPEDFATYYCQQVAFWPPTFGQGTKVEIKR
B17: ABT2-11 (other)
VH: EVQLLESGGGLVQPGGSLRLSCAASGFTFDNYSMTWVRQAPGKGLEWVSAISGSGGSTYYADSVKGRFTISRDNSKNTLYLQMNSLRAEDTAVYYCAKCIDRLPCLFDYWGQGTLVTVSS
B18: ABT2-65-34 (other)
VH: EVQLLESGGGLVQPGGSLRLSCAASGFTFEDYQMGWVRQAPGKGLEWVSSISAMGNRTYYADSVKGRFTISRDDSKNTLYLQMNSLRAEDTAVYYCAQNLVRTRSKRWMFDYWGQGTLVTVSS
B19: ABT2-65-512 (other)
VH: EVQLLESGGGLVQPGGSLRLSCVASGFTFEDYQMGWVHQAPGKGLEWVSSISAMGNRTYYADSVKGRFTISRDDSKNTLYLQMNSLRAEDTAVYYCAQNLVRLGRSRWMFDYWGQGTLVTVSS
B20: ABT2-65-163 (other)
VH: EVQLLESGGGLVQPGGSLRLSCVASGFTFEDYQMGWVRQAPGKGLEWVSSISAMGGRTYYADSVKGRFTISRDDSKNTLYLQMNSLRAEDTAVYYCAQNLVRLGRSRWMFDYWGQGTLVTVSS
B21: ABT2-65-510 (other)
VH: EVQLLESGGGLVQPGGSLRLSCVASGFTFEDYQMGWVRQAPGKGLEWVSSISAMGNRTYYADSVKGRFTISRDDSENTLYLQMNSLRAEDTAVYYCAQNLVRLGRSRWMFDYWGQGTLVTVSS
B22: ABT2-65-504 (other)
VH: EVQLLESGGGLVQPGGSLRLSCVASGFTFEDYQMGWVRQAPGKGLERVSSVSAMGNRTHYADSVKGRFTISRDDSKNTLYLQMNSLRAGDTAVYYCAQNLVRLGRSRWMFDYWGQGTLVTVSS
B23: ABT2-65-502 (other)
VH: EVQLLESGGGLVQPGGSLRLSCVASGFTFEDYQMGWVRQAPGKGLEWVSSVSAMGNRTYYADSVKGRFTISRDGSKNTLYLQMNSLRAEDTAVYYCAQNLVRLGRSRWMFDYWGQGTLVTVSS
B24: ABT2-65-35 (other)
VH: EVQLLESGGGLVQPGGSLRLSCVASGFTFEDYQMGWVRQAPGKGLEWVSSISAMGNRTYYADSVKGRFTISRDDSKNTLYLQMNSLRAEDTAVYYCAQNLVRLRRSRWMFDYWGQGTLVTVSS
B25: ABT2-65-160 (other)
VH: EVQLLESGGGLVQPGGSLRLSCVASGFTFEDYQMGWVRQAPGKGLEWVSSISAMGPRTYYADSVKGRFTISRDDSKNTLYLQMNSLRAEDTAVYYCAQNLVRLGRSRWMFDYWGQGTLVTVSS

Experiments:
human IL-1β [1] = molecular target: T1, human IL-1β (human, UniProt P01584 117-269); experiment: cell-based or functional assay
human IL-1β [2] = molecular target: T1, human IL-1β; experiment: IC50 column of Table 63; receptor binding assay presumed

Row | ND50 (human IL-1β [1]) [nM] | IC50 (human IL-1β [2]) [nM] | Binder
1 | 5 |  | B1
2 | 5 |  | B2
3 | 206 |  | B3
4 | > 10000 |  | B4
5 | > 10000 |  | B5
6 | > 10000 |  | B6
7 | > 10000 |  | B7
8 | > 10000 |  | B8
9 | > 10000 |  | B9
10 | > 10000 |  | B10
11 | > 10000 |  | B11
12 | > 1000 | 1000 | B12
13 | > 1000 | 700 | B13
14 | 1000 | 175 | B14
15 | > 10000 |  | B15
16 | 500 |  | B16
17 | > 10000 |  | B17
18 | 20 |  | B18
19 | 3 |  | B19
20 | 2 |  | B20
21 | 1 |  | B21
22 | 4 |  | B22
23 | 2 |  | B23
24 | 4 |  | B24
25 | 2 |  | B25
